T1: N-terminal domain of CEA (Homo sapiens (Human), UniProt P06731 35-144)
T1 construct: Target of the yeast two-hybrid screens; synthetic gene, codon-optimised for S. cerevisiae, cloned into a yeast TH vector; The fusion partner of the vector is not described; also called N-CEA; CEACAM5
T1 sequence: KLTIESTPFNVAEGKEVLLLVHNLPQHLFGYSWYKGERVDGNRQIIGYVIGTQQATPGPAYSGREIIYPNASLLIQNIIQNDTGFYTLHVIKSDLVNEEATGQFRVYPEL


How the values were obtained:
N-terminal domain of CEA [1] = target: T1, N-terminal domain of CEA; experiment: yeast two-hybrid screen against N-CEA
N-terminal domain of CEA [2] = target: T1, N-terminal domain of CEA; experiment: yeast two-hybrid, FDG rescreening

Row | Binder | binding result (N-terminal domain of CEA [1]) | binding result (N-terminal domain of CEA [2])
1 | DraE T88M (N77K) I111H (ligand) GFTPSGTTGTTKLTVTEECQVRVGDLTVAKTRGQLTDAAPIGPVTVQALGCDARQVALKADTDNFEQGKFFLISDNKRDKLYVNIRPMDNSAWTTDNGVFYKNDVGSWGGHIGIYVDGQQTNTPPGNYTLTLTGGYWAK | binds | –
2 | combined mutant F100S T11I D37G (on DraE T88M N77K) (ligand, also called F1005 T11I D37G) GFTPSGTTGTIKLTVTEECQVRVGDLTVAKTRGQLTGAAPIGPVTVQALGCDARQVALKADTDNFEQGKFFLISDNKRDKLYVNIRPMDNSAWTTDNGVSYKNDVGSWGGIIGIYVDGQQTNTPPGNYTLTLTGGYWAK | – | binds
3 | DraE T88M Q34L N84S (ligand) GFTPSGTTGTTKLTVTEECQVRVGDLTVAKTRGLLTDAAPIGPVTVQALGCDARQVALKADTDNFEQGKFFLISDNKRDKLYVSIRPMDNSAWTTDNGVFYKNDVGSWGGIIGIYVDGQQTNTPPGNYTLTLTGGYWAK | – | binds
4 | combination mutant F100I T123I (on DraE T88M N77K) (ligand) GFTPSGTTGTTKLTVTEECQVRVGDLTVAKTRGQLTDAAPIGPVTVQALGCDARQVALKADTDNFEQGKFFLISDNKRDKLYVNIRPMDNSAWTTDNGVIYKNDVGSWGGIIGIYVDGQQTNIPPGNYTLTLTGGYWAK | – | binds
5 | DraE T88M G118S I85L (ligand) GFTPSGTTGTTKLTVTEECQVRVGDLTVAKTRGQLTDAAPIGPVTVQALGCDARQVALKADTDNFEQGKFFLISDNKRDKLYVNLRPMDNSAWTTDNGVFYKNDVGSWGGIIGIYVDSQQTNTPPGNYTLTLTGGYWAK | – | binds
6 | combined mutant T95E T123I (on DraE T88M N77K) (ligand, also called T95E T1231) GFTPSGTTGTTKLTVTEECQVRVGDLTVAKTRGQLTDAAPIGPVTVQALGCDARQVALKADTDNFEQGKFFLISDNKRDKLYVNIRPMDNSAWTEDNGVFYKNDVGSWGGIIGIYVDGQQTNIPPGNYTLTLTGGYWAK | – | binds
